Drawing on article PMC9328677 (2021), this text covers Kd for eight molecules.

B1: acidic domain of Homo sapiens APLF (APLF^AD, residues 450 to 511), wild type (domain or fragment)
chain: DEDNDNVGQPNEYDLNDSFLDDEEEDYEPTDEDSDWEPGKEDEEKEDVEELLKEAKRFMKRK
B2: APLF^AD double anchor mutant Y462A/F468A (DA-34) (domain or fragment)
chain: B1 chain with Y13A, F19A
B3: APLF^AD double anchor mutant Y476A/W485A (DA-AB) (domain or fragment)
chain: B1 chain with Y27A, W36A
B4: SUMO-APLF^AD quadruple anchor mutant Y462A/F468A/Y476A/W485A (QA) (domain or fragment)
chain: B1 chain with Y13A, F19A, Y27A, W36A
B5: APLF^AD F468A (protein)
chain: B1 chain with F19A
B6: APLF^AD mutant of Y462 tested by ITC on H3-H4 (domain or fragment)
chain: B1 chain with Y13A

Changes are numbered by the printed parent chain. Names and notes keep the numbering of the source.

The first experiment addresses T1, Drosophila melanogaster histone H3-H4 complex, full-length (Drosophila melanogaster, UniProt P02299 1-136; P84040 1-103). As to the kind of experiment: ITC.
By Kd is commonly meant the free concentration of one partner at which half of the binding sites on the other are occupied at equilibrium, for simple one-to-one binding. Regarding B1, the Kd is 0.552 µM.

The target of another experiment is stoichiometric mixture of full-length Drosophila melanogaster H2A-H2B and H3-H4 (octamer-mix) (Drosophila melanogaster, UniProt P84051 1-124; P02283 1-123; P02299 1-136; P84040 1-103). Put plainly: ITC. On the technique in general: In ITC the heat of successive injections is recorded.
On to LDEDNDNVGQPNEADLNDSALDDEEEDAEPTDEDSDAEPGKE (domain or fragment) [SUMO-APLF^AD truncated QA mutant (QA-Δ, residues 449 to 490)], for which the dissociation constant Kd stood at 1.22 µM.

In the case of GLDEDNDNVGQPNEYDLNDSFLDDEEEDYEPTDEDSDWEPGKE (domain or fragment) [truncated APLF^AD construct corresponding to residues 449 to 490 (APLF^AD-Δ)], the equilibrium dissociation constant (Kd) stood at 0.09 µM.

For B2, the Kd turned out to be 0.671 µM. Take B3: the Kd amounted to 0.317 µM. For B4, the dissociation constant (Kd) turned out to be 0.794 µM.

In a further experiment the target is T1, Drosophila melanogaster histone H3-H4 …. As to the kind of experiment: ITC. The source holds these as a separate data set.
Regarding B2, the Kd is 7.63 µM.

As for B5, the Kd was found to be 0.98 µM. B1: the equilibrium dissociation constant (Kd) was 0.79 µM. Regarding B3, binding was characterised by a dissociation constant (Kd) of 2.05 µM. In the case of B6, binding was characterised by a dissociation constant (Kd) of 3.09 µM.
